Data reported in US6897296.

What was measured:
[1] = target: T1, proMch4 (35S-labeled wild type Mch4)
T1 chain: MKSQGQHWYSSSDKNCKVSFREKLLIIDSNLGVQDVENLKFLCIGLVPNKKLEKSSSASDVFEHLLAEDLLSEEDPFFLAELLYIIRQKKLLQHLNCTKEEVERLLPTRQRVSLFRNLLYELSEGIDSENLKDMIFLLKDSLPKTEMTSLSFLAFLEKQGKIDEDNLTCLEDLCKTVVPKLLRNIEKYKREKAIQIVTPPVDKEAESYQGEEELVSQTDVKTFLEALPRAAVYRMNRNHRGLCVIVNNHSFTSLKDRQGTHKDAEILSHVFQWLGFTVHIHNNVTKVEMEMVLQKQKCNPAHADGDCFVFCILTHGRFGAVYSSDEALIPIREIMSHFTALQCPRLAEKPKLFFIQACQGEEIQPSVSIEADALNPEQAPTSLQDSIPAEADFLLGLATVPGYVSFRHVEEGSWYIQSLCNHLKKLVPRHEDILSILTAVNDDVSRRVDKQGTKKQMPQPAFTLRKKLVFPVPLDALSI

[2] = target: T2, DEVD-AMC (not fully specified)
T2 chain: DEVD

[3] = target: T3, truncated Mch4-M134
T3 chain: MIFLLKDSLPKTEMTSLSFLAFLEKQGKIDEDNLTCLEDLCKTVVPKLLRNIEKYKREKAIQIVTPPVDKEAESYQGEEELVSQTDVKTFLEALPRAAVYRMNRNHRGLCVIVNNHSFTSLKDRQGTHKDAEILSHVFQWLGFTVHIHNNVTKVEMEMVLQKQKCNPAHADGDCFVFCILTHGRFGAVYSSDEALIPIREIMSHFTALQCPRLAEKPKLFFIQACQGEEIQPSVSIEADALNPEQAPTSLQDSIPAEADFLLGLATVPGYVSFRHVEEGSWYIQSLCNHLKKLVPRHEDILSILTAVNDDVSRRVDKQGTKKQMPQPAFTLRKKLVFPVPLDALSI

[4] = target: T4, YVAD-AMC (not fully specified)
T4 chain: YVAD

B1: recombinant Mch3 (protein)
chain: AKPDRSSFVPSLFSKKKKNVTMRSIKTTRDRVPTYQYNMNFEKLGKCIIINNKNFDKVTGMGVRNGTDKDAEALFKCFRSLGFDVIVYNDCSCAKMQDLLKKASEEDHTNAACFACILLSHGEENVIYGKDGVTPIKDLTAHFRGDRCKTLLEKPKLFFIQACRGTELDDGIQADSGPINDTDANPRYKIPVEADFLFAYSTVPGYYSWRSPGRGSWFVQALCSILEEHGKDLEIMQILTRVNDRVARHFESQSDDPHFHEKKQIPCVVSMLTKELYFSQ
cleavage of 35S-labeled proenzyme, SDS-PAGE and autoradiography [1]: there was no significant cleavage of proMch4 when incubated with recombinant CPP32 or Mch3 enzymes

B2: recombinant CPP32 (protein)
chain: SGISLDNSYKMDYPEMGLCIIINNKNFHKSTGMTSRSGTDVDAANLRETFRNLKYEVRNKNDLTREEIVELMRDVSKEDHSKRSSFVCVLLSHGEEGIIFGTNGPVDLKKITNFFRGDRCRSLTGKPKLFIIQACRGTELDCGIETDSGVDDDMACHKIPVEADFLYAYSTAPGYYSWRNSKDGSWFIQSLCAMLKQYADKLEFMHILTRVNRKVATEFESFSFDATFHAKKQIPCIVSMLTKELYFYH
cleavage of 35S-labeled proenzyme, SDS-PAGE and autoradiography [1]: there was no significant cleavage of proMch4 when incubated with recombinant CPP32 or Mch3 enzymes

B3: ICE (protein)
chain: NPAMPTSSGSEGNVKLCSLEEAQRIWKQKSAEIYPIMDKSSRTRLALIICNEEFDSIPRRTGAEVDITGMTMLLQNLGYSVDVKKNLTASDMTTELEAFAHRPEHKTSDSTFLVFMSHGIREGICGKKHSEQVPDILQLNAIFNMLNTKNCPSLKDKPKVIIIQACRGDSPGVVWFKDSVGVSGNLSLPTTEEFEDDAIKKAHIEKDFIAFCSSTPDNVSWRHPTMGSVFIGRLIEHMQEYACSCDVEEIFRKVRFSFEQPDGRAQMPTTERVTLTRCFYLFPGH
cleavage of proenzyme [1]: none of these enzymes were able to efficiently process proMch4

B4: Mch2 (protein)
chain: AFYKREMFDPAEKYKMDHRRRGIALIFNHERFFWHLTLPERRGTCADRDNLTRRFSDLGFEVKCFNDLKAEELLLKIHEVSTVSHADADCFVCVFLSHGEGNHIYAYDAKIEIQTLTGLFKGDKCHSLVGKPKIFIIQACRGNQHDVPVIPLDVVDNQTEKLDTNITEVDAASVYTLPAGADFLMCYSVAEGYYSHRETVNGSWYIQDLCEMLGKYGSSLEFTELLTLVNRKVSQRRVDFCKDPSAIGKKQVPCFASMLTKKLHFFPKSN
cleavage of proenzyme [1]: none of these enzymes were able to efficiently process proMch4

B5: TX (protein)
chain: QISPNKKAHPNMEAGPPESGESTDALKLCPHEEFLRLCKERAEEIYPIKERNNRTRLALIICNTEFDHLPPRNGADFDITGMKELLEGLDYSVDVEENLTARDMESALRAFATRPEHKSSDSTFLVLMSHGILEGICGTVHDEKKPDVLLYDTIFQIFNNRNCLSLKDKPKVIIVQACRGANRGELWVRDSPASLEVASSQSSENLEEDAVYKTHVEKDFIAFCSSTPHNVSWRDSTMGSIFITQLITCFQKYSWCCHLEEVFRKVQQSFETPRAKAQMPTIERLSMTRYFYLFPGN
cleavage of proenzyme [1]: none of these enzymes were able to efficiently process proMch4

B6: bacterially expressed recombinant Mch4 (GST-Mch4 fusion protein) (protein)
chain: IQIVTPPVDKEAESYQGEEELVSQTDVKTFLEALPRAAVYRMNRNHRGLCVIVNNHSFTSLKDRQGTHKDAEILSHVFQWLGFTVHIHNNVTKVEMEMVLQKQKCNPAHADGDCFVFCILTHGRFGAVYSSDEALIPIREIMSHFTALQCPRLAEKPKLFFIQACQGEEIQPSVSIEADALNPEQAPTSLQDSIPAEADFLLGLATVPGYVSFRHVEEGSWYIQSLCNHLKKLVPRHEDILSILTAVNDDVSRRVDKQGTKKQMPQPAFTLRKKLVFPVPLDALSI
Km (DEVD-AMC) [2]: 130 µM
Vmax/Km [2]: Vmax/KmMch4=18
cleavage of 35S-labeled proenzyme, SDS-PAGE and autoradiography [3]: Although Mch4 was able to cleave proMch4, its activity towards its proenzyme was significantly lower than that towards proCPP32 and proMch3 (FIG. 5B, lane 7)
Km (YVAD-AMC) [4]: 150 µM
